Results from article PMC7835349 (Communications Biology, 2021).

Assays:
platelets = assay: Platelet count in dogs; type: in vivo; conditions: dog, weekly ascending doses
SUDHL-4 xenograft = SUDHL-4 xenograft efficacy and survival; type: in vivo, C.B-17 SCID mouse
Method: Female C.B.−17 SCID mice were purchased from Charles River Laboratories. Mice were 5–8 weeks old at the time of tumour implantation. All xenograft studies were conducted at our Association for the Assessment and Accreditation of Laboratory Animal Care accredited facility in Waltham, MA in accordance with ethical regulations described in the guidelines established by the internal Institutional Animal Care and Use Committee. The dendrimer conjugates were formulated in citrate/phosphate buffer pH 5.0, diluted 1:10 with 5% glucose containing 1% w/v Kolliphor HS15, and AZD4320 was formulated in 30% HP-β-CD and dosed as a weekly intravenous (IV) administration at a volume of 5 ml/kg at the indicated doses. Five million RS4;11, five million SUDHL-4 or five million OCI-LY-10 cells were injected subcutaneously in the right flank of mice in a volume of 0.1 ml. Tumour volumes (measured by caliper), animal body weight, and tumor condition were recorded twice weekly for the duration of the study. The tumour volume was calculated (taking length to be the longest diameter across the tumour and width to be the corresponding perpendicular diameter) using the formula: length (mm) x width (mm)^2/0.52. For efficacy studies, mice were randomized based on tumour volumes using stratified sampling and enrolled into control and treatment groups. Tumour growth inhibition from the start of treatment was quantified by measuring the difference in tumour volume between control and treated groups. Survival analysis was evaluated using Mantel-Cox test. Tumours were also taken for bioanalysis.

[1] = In vitro release of AZD4320 from dendrimer conjugates in PBS pH 7.4, 37 °C; conditions: for Cummulative Release % / Mean % Released: PBS 37 °C
Method: In vitro release half-life was calculated by least squares fitting to a 1st order release model.
AZD4320 release kinetics were determined in vitro under physiological conditions.
Nanoparticles were suspended in phosphate buffered saline (PBS) pH7.4 or rat plasma with 5%
HEPES in HPLC vials and sample temperature maintained to 37 °C using a water bath with
continuous stirring of the sample provided by iChem explorer unit. Periodically, 5-10 µL of
sample was injected onto the column (Acquity UPLC BEH shield RP18 1.7 µm, 4.6 x 30 mm,
Waters), bracketed by DMA to re-dissolve any precipitated AZD4320. The percent release was
calculated by comparing unconjugated AZD4320 peak area to total unconjugated + dendrimer-
conjugated AZD4320 peak areas. The half-life was calculated by least squares fitting to a 1st

AZD4320-MIDA-PEG2100 [AZD0466]
effect on platelet count (platelets): reversible and dose-dependent decrease in platelet count | animals with complete and durable regressions (SUDHL-4 xenograft; SUDHL-4, 103 mg/kg AZD0466 + 10 mg/kg rituximab): 5/6 | animals with complete and durable regressions (SUDHL-4 xenograft; SUDHL-4, 172 mg/kg AZD0466 + 10 mg/kg rituximab): 6/6 | combination effect (SUDHL-4 xenograft; SUDHL-4, AZD0466 at various doses combined with 10 mg/kg rituximab): tumour regressions were seen in the combination groups at all doses | SUDHL-4 xenograft efficacy, Geo Mean (SUDHL-4 xenograft; day 1): 200.82 | SUDHL-4 xenograft efficacy, Geo Mean (SUDHL-4 xenograft; day 5): 191.7 | SUDHL-4 xenograft efficacy, Geo Mean (SUDHL-4 xenograft; day 9): 255.655 | SUDHL-4 xenograft efficacy, Geo Mean (SUDHL-4 xenograft; day 12): 291.711 | SUDHL-4 xenograft efficacy, Geo Mean (SUDHL-4 xenograft; day 16): 450.847 | SUDHL-4 xenograft efficacy, Geo Mean (SUDHL-4 xenograft; day 19): 493.153 | SUDHL-4 xenograft efficacy, Geo Mean (SUDHL-4 xenograft; day 23): 795.158 | SUDHL-4 xenograft efficacy, Geo Mean (SUDHL-4 xenograft; day 26): 1047.96 | SUDHL-4 xenograft efficacy, Geo Mean (SUDHL-4 xenograft; day 29): 1181.66 | Cummulative Release % ([1]; 0.75 h, Replicate 1): 2.01% | Cummulative Release % ([1]; 0.90 h, Replicate 2): 2.72% | Cummulative Release % ([1]; 1.05 h, Replicate 3): 2.87% | Cummulative Release % ([1]; 1.67 h, Replicate 1): 3.95% | Cummulative Release % ([1]; 1.82 h, Replicate 2): 4.63% | Cummulative Release % ([1]; 1.97 h, Replicate 3): 5.12% | Cummulative Release % ([1]; 2.60 h, Replicate 1): 6.37% | Cummulative Release % ([1]; 2.75 h, Replicate 2): 7.07% | Cummulative Release % ([1]; 2.90 h, Replicate 3): 7.57% | Cummulative Release % ([1]; 3.52 h, Replicate 1): 8.48% | Cummulative Release % ([1]; 3.67 h, Replicate 2): 9.50% | Cummulative Release % ([1]; 3.83 h, Replicate 3): 9.95% | Cummulative Release % ([1]; 4.45 h, Replicate 1): 10.66% | Cummulative Release % ([1]; 4.60 h, Replicate 2): 11.87% | Cummulative Release % ([1]; 4.75 h, Replicate 3): 12.24% | Cummulative Release % ([1]; 5.37 h, Replicate 1): 12.82% | Cummulative Release % ([1]; 5.52 h, Replicate 2): 13.72% | Cummulative Release % ([1]; 5.68 h, Replicate 3): 14.33% | Cummulative Release % ([1]; 6.30 h, Replicate 1): 15.04% | Cummulative Release % ([1]; 6.45 h, Replicate 2): 16.29% | Cummulative Release % ([1]; 6.60 h, Replicate 3): 15.86% | Cummulative Release % ([1]; 7.22 h, Replicate 1): 15.94% | Cummulative Release % ([1]; 7.37 h, Replicate 2): 17.47% | Cummulative Release % ([1]; 7.53 h, Replicate 3): 17.99% | Cummulative Release % ([1]; 8.15 h, Replicate 1): 18.09% | Cummulative Release % ([1]; 8.30 h, Replicate 2): 19.34% | Cummulative Release % ([1]; 8.45 h, Replicate 3): 19.77% | Cummulative Release % ([1]; 9.07 h, Replicate 1): 20.00% | Cummulative Release % ([1]; 9.23 h, Replicate 2): 21.33% | Cummulative Release % ([1]; 9.38 h, Replicate 3): 21.63% | Cummulative Release % ([1]; 10.00 h, Replicate 1): 22.23% | Cummulative Release % ([1]; 10.15 h, Replicate 2): 23.21% | Cummulative Release % ([1]; 10.30 h, Replicate 3): 23.50% | Cummulative Release % ([1]; 10.92 h, Replicate 1): 23.70% | Cummulative Release % ([1]; 11.08 h, Replicate 2): 25.81% | Cummulative Release % ([1]; 11.23 h, Replicate 3): 25.99% | Cummulative Release % ([1]; 11.85 h, Replicate 1): 25.62% | Cummulative Release % ([1]; 12.00 h, Replicate 2): 26.79% | Cummulative Release % ([1]; 12.15 h, Replicate 3): 27.44% | Cummulative Release % ([1]; 12.77 h, Replicate 1): 27.74% | Cummulative Release % ([1]; 12.93 h, Replicate 2): 29.41% | Cummulative Release % ([1]; 13.08 h, Replicate 3): 29.66% | Cummulative Release % ([1]; 13.70 h, Replicate 1): 29.02% | Cummulative Release % ([1]; 13.85 h, Replicate 2): 30.77% | Cummulative Release % ([1]; 14.00 h, Replicate 3): 31.43% | Cummulative Release % ([1]; 14.63 h, Replicate 1): 30.82% | Cummulative Release % ([1]; 14.78 h, Replicate 2): 32.39% | Cummulative Release % ([1]; 14.93 h, Replicate 3): 33.56% | Cummulative Release % ([1]; 15.55 h, Replicate 1): 32.52% | Cummulative Release % ([1]; 15.70 h, Replicate 2): 34.45% | Cummulative Release % ([1]; 15.85 h, Replicate 3): 35.54% | Cummulative Release % ([1]; 16.48 h, Replicate 1): 34.39% | Cummulative Release % ([1]; 16.63 h, Replicate 2): 35.86% | Cummulative Release % ([1]; 16.78 h, Replicate 3): 36.74% | Cummulative Release % ([1]; 17.40 h, Replicate 1): 35.32% | Cummulative Release % ([1]; 17.55 h, Replicate 2): 37.92% | Cummulative Release % ([1]; 17.71 h, Replicate 3): 39.37% | Cummulative Release % ([1]; 18.33 h, Replicate 1): 37.81% | Cummulative Release % ([1]; 18.48 h, Replicate 2): 39.44% | Cummulative Release % ([1]; 18.63 h, Replicate 3): 41.92% | Cummulative Release % ([1]; 19.25 h, Replicate 1): 40.42% | Cummulative Release % ([1]; 19.40 h, Replicate 2): 41.10% | Cummulative Release % ([1]; 19.56 h, Replicate 3): 42.30% | Cummulative Release % ([1]; 20.18 h, Replicate 1): 40.20% | Cummulative Release % ([1]; 20.33 h, Replicate 2): 43.40% | Cummulative Release % ([1]; 20.48 h, Replicate 3): 44.87% | Cummulative Release % ([1]; 21.10 h, Replicate 1): 42.52% | Cummulative Release % ([1]; 21.25 h, Replicate 2): 45.67% | Cummulative Release % ([1]; 21.41 h, Replicate 3): 46.38% | Cummulative Release % ([1]; 22.03 h, Replicate 1): 45.50% | Cummulative Release % ([1]; 22.18 h, Replicate 2): 47.56% | Cummulative Release % ([1]; 22.33 h, Replicate 3): 48.29% | Cummulative Release % ([1]; 22.95 h, Replicate 1): 46.44% | Cummulative Release % ([1]; 23.10 h, Replicate 2): 48.78% | Cummulative Release % ([1]; 23.88 h, Replicate 1): 47.76% | Cummulative Release % ([1]; 24.03 h, Replicate 2): 50.99% | Cummulative Release % ([1]; 24.80 h, Replicate 1): 50.26% | Cummulative Release % ([1]; 24.95 h, Replicate 2): 53.17% | Mean % Released ([1]; mean time 0.90 h): 2.53% | Mean % Released ([1]; mean time 1.82 h): 4.57% | Mean % Released ([1]; mean time 2.75 h): 7.00% | Mean % Released ([1]; mean time 3.67 h): 9.31% | Mean % Released ([1]; mean time 4.60 h): 11.59% | Mean % Released ([1]; mean time 5.52 h): 13.62% | Mean % Released ([1]; mean time 6.45 h): 15.73% | Mean % Released ([1]; mean time 7.37 h): 17.14% | Mean % Released ([1]; mean time 8.30 h): 19.07% | Mean % Released ([1]; mean time 9.23 h): 20.98% | Mean % Released ([1]; mean time 10.15 h): 22.98% | Mean % Released ([1]; mean time 11.08 h): 25.17% | Mean % Released ([1]; mean time 12.00 h): 26.61% | Mean % Released ([1]; mean time 12.93 h): 28.93% | Mean % Released ([1]; mean time 13.85 h): 30.40% | Mean % Released ([1]; mean time 14.78 h): 32.26% | Mean % Released ([1]; mean time 15.70 h): 34.17% | Mean % Released ([1]; mean time 16.63 h): 35.66% | Mean % Released ([1]; mean time 17.55 h): 37.54% | Mean % Released ([1]; mean time 18.48 h): 39.72% | Mean % Released ([1]; mean time 19.40 h): 41.27% | Mean % Released ([1]; mean time 20.33 h): 42.83% | Mean % Released ([1]; mean time 21.25 h): 44.86% | Mean % Released ([1]; mean time 22.18 h): 47.12% | Mean % Released ([1]; mean time 23.03 h): 47.61% | Mean % Released ([1]; mean time 23.95 h): 49.38% | Mean % Released ([1]; mean time 24.88 h): 51.72% | In vitro release half-life (t1/2) of AZD4320 ([1]; PBS pH 7.4, 37 °C, first order fit): 25.5 h
